From patent US20110217237A1 (AbbVie / Abbott, published 2011)
Like-named read-outs stand apart in the source and are kept apart here.

Key:
[1] = target: T1, human DLL4 extracellular domain (human, UniProt Q9NR61 27-529); experiment: SPR (Biacore)
T1 construct: purified recombinant ECD; biotin-labelled or 6xHis-tagged depending on the assay; also called huDLL4 ECD; hu DLL4 ECD

[2] = target: T2, mouse DLL4 extracellular domain (mouse, UniProt Q9JI71 27-532); experiment: SPR (Biacore)
T2 construct: extracellular domain; also called muDLL4 ECD; murine DLL4

[3] = target: T1, human DLL4 extracellular domain; experiment: competition ELISA vs Notch-1
[4] = target: T2, mouse DLL4 extracellular domain; experiment: competition ELISA vs Notch-1
[5] = target: T3, mouse DLL4 on cells (mouse, UniProt Q9JI71 27-686); experiment: FACS, DLL4 cells
T3 construct: whole, on cells; also called mouse DLL4-293G; mu DLL4 cells

[6] = target: T4, human DLL4, full length, on cells (human, UniProt Q9NR61 27-685); experiment: FACS, DLL4 cells
T4 construct: also called huDLL4 cells; human DLL4-293G

[7] = target: T3, mouse DLL4 on cells; experiment: competition FACS: huNotch-1 to DLL4 cells
Description: (§1) Notch blocking assay: Briefly, stable cell lines overexpressing cell-surface DLL4 were harvested from tissue culture flasks and re-suspended in phosphate buffered saline (PBS) containing 1% bovine serum albumin and 1 mM CaCl₂ (FACS buffer). HEK293G-DLL4 cells were dispensed into 96-well plate (v-bottom) at 1.5×10⁵ cells/well in FACS buffer. After spinning down cells and discarding the supernatant, 50 μL of purified IgG with appropriate dilution were added to each well, and incubated on ice at 4° C. for 60 minutes, followed by addition of 50 μL/well of Notch1-biotin at 0.2 μg/mL for human DLL4-293G or 2.0 μg/mL for mouse DLL4-293G (1.0 or 0.1 μg/mL final) for an additional 1 hour incubation ice at 4° C. After washing the cells two times with FACS buffer, 50 μL of R-phycoerythrin-conjugated streptavidin (1:150 dilution in FACS buffer) (Jackson ImmunoResearch, West Grove, Pa., Cat.#016-110-084) were added. Following an incubation on ice (4° C., 60 minutes), cells were washed three times and resuspended in FACS buffer. Fluorescence was measured using a Becton Dickinson FACSCalibur-HTS (Becton Dickinson, San Jose, Calif.). Data were analyzed using Graphpad Prism software, and IC₅₀ values were reported as the concentration of antibody to achieve 50% reduction of Notch1 bound to DLL4 expressing cells.

[8] = target: T4, human DLL4, full length, on cells; experiment: competition FACS: huNotch-1 to DLL4 cells
Description: as §1

[9] = target: T1, human DLL4 extracellular domain; experiment: binding ELISA
[10] = target: T5, cynomolgus monkey DLL4 extracellular domain (cynomolgus monkey); experiment: binding ELISA
T5 construct: extracellular domain; also called cynoDLL4 ECD; Cyno DLL4

[11] = target: T2, mouse DLL4 extracellular domain; experiment: binding ELISA
[12] = target: T3, mouse DLL4 on cells; experiment: FACS, DLL4 cells; remark: listed apart in the source
[13] = target: T4, human DLL4, full length, on cells; experiment: FACS, DLL4 cells; remark: listed apart in the source
[14] = target: T4, human DLL4, full length, on cells; experiment: cell-based or functional assay

T1 sequence (Q9NR61 27-529 limits assumed): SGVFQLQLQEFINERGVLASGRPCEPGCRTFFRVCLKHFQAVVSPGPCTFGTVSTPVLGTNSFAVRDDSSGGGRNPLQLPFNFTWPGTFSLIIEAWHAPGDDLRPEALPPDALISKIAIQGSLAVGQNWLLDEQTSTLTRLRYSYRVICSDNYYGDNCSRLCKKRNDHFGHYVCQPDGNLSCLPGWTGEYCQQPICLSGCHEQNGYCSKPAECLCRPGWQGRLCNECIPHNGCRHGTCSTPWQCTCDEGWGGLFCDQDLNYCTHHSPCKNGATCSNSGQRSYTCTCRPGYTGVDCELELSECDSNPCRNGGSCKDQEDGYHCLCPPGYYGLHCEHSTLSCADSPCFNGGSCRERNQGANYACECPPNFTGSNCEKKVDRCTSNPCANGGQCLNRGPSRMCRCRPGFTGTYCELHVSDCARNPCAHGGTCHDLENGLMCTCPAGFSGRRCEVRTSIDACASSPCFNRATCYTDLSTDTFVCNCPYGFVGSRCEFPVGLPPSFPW
T4 sequence (Q9NR61 27-685 limits assumed): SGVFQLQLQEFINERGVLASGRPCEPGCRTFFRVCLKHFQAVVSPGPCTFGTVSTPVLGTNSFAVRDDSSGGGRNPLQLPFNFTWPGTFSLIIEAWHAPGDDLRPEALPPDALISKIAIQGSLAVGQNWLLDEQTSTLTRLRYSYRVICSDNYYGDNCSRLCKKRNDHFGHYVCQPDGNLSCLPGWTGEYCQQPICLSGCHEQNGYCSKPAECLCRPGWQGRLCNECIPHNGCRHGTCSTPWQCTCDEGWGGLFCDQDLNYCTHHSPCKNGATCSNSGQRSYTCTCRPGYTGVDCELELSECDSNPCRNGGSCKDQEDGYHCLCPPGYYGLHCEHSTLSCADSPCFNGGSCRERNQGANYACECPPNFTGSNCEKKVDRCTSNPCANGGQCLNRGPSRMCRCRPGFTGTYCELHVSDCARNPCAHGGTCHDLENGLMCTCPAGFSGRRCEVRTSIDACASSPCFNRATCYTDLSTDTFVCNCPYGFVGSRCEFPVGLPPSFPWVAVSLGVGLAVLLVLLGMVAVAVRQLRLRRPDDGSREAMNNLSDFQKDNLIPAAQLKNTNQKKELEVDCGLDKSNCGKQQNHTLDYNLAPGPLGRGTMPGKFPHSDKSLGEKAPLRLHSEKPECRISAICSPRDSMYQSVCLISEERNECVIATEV
T3 sequence (Q9JI71 27-686): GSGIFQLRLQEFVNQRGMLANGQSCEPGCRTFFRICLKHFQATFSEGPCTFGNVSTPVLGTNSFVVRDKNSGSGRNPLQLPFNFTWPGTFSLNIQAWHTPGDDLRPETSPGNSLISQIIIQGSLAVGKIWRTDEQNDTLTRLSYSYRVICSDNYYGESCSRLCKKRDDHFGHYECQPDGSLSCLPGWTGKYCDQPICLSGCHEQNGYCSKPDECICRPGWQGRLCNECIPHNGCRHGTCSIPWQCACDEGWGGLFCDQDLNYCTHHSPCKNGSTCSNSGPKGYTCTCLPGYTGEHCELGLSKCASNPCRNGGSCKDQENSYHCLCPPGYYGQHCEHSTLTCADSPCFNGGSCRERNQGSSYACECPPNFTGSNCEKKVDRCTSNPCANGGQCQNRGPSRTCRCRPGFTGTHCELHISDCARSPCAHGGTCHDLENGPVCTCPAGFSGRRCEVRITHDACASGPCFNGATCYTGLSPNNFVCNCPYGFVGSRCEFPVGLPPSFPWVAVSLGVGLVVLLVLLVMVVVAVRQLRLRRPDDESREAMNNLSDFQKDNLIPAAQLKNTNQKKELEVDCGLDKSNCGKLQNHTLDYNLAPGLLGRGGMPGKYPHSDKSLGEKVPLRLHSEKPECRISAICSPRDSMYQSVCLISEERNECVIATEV
T2 sequence (Q9JI71 27-532): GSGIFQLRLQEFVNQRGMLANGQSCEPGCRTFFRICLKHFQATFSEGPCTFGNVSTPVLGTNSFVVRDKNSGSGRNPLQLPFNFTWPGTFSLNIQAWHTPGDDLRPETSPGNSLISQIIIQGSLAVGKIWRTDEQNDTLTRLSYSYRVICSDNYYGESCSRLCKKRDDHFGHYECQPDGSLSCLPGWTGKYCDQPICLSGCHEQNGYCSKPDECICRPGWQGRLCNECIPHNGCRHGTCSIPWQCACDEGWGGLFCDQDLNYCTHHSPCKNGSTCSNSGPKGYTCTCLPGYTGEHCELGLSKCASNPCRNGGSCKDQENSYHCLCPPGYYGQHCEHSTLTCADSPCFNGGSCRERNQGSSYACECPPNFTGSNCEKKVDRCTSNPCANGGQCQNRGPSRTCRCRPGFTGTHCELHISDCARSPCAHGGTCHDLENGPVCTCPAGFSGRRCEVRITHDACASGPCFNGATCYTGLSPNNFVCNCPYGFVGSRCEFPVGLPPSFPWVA

- Kd [1]: 9 nM
- Kd [2]: 24 nM
- IC50 [3]: 1.8 nM
- IC50 [4]: 3.5 nM
- EC50 [5]: 0.74 nM
- EC50 [6]: 19.6 nM
- IC50 [7]: 0.682 nM
- IC50 [8]: 2.34 nM
- EC50 [9]: 0.2 nM
- EC50 [10]: 0.33 nM
- EC50 [11]: 0.3 nM
- EC50 [12]: 0.53 nM
- EC50 [13]: 6.29 nM
- Reporter Assay (EC50, nM) [14]: 5.98 nM
B1: 1A11 chimeric antibody (antibody, human IgG1, V domains shown)
VH: EVQLVESGGGLVQPGRSMKLSCAASGFTFRNFPMAWVRQAPTRGLEWVATISSSDGTTYYRDSVKGRFTISRDNAKSTLYLQVNSLRSEDTATYYCSRGYYNSPFAYWGQGTLVTVSS
VL: DIQMTQSPASLSASLGETVTIECRASEDIYSNLAWYQQKPGNSPQLLIFDTNNLADGVPSRFSGSGSGTQSSLKINSLQSEDVASYFCQQYNNYPPTFGGGTKLELKR
notes: also called Chimera of 1A11; 1A11 (chimera)
